# In US8709741B2, “Methods of diagnosing a plasmodium infection” (priority 2009, dated 2014):
# B1: X: recombinant human group X secreted phospholipase A2 (protein, UniProt O15496 43-165, looked up)
# Group 10 secretory …: GILELAGTVGCVGPRTPIAYMKYGCFCGLGGHGQPRDAIDWCCHGHDCCYTRAEEAGCSPKTERYSWQCVNQSVLCGPAENKCQELLCKCDQEIANCLAQTEYNLKYLFYPQFLCEPDSPKCD
# Test system: P. falciparum blood stages
# Experiment: Sensitivity of the P. falciparum blood stages to GX sPLA2 (15 h treatment, re-invasion)
# Type: cell-based
# Settings: 100 nM
# Experimental: A parasite culture was synchronised on a 4 h window. Parasites aged 0-4 h post-invasion (p.i.) (rings, R), 18-22 h p.i. (trophozoites, T), and 34-38 h p.i. (schizonts, S) were incubated for 15 h in culture conditions with (▪) or without (□) 100 nM recombinant GX sPLA2. Afterwards cells were washed and let grow in normal culture conditions until re-invasion. GX sPLA2 inhibitory activity on the complete parasite cycle was assessed by incubating 0-4 h p.i. parasites for 48 h with GX sPLA2 (cycle). Parasitaemia in each sample was determined from Diff Quick-stained smears. For each stage, 100% parasitaemia was established from parasite growth in the absence of enzyme;
# A parasite culture was synchronised on a 4 h-window. Parasites aged 0-4 h post-invasion (rings), 18-22 h post-invasion (trophozoites), and 34-38 h post-invasion (schizonts) were adjusted to 1% parasitaemia and 2% haematocrit in complete medium, and were then incubated in a 96-well plate in a candle jar at 37° C., with or without 100 nM of recombinant GX sPLA2. After 15 hours, cells were centrifuged at 900×g for 2 min, washed in RPMI and re-suspended at a 2% haematocrit in fresh complete medium for further growth. When re-invasion had occurred (P. falciparum invades new RBCs when its 48 hour-development cycle is completed), parasitaemia (%) in each well was determined from Diff Quick-stained smears. GX sPLA2 inhibitory activity on the complete parasite cycle was assessed by incubating rings with the recombinant enzyme for 48 hours.
molecule,measurement,setting,value
B1,re-invasion after treatment of rings,rings 0-4 h post-invasion,25%
same,schizonts that completed the cycle after treatment,schizonts 34-38 h post-invasion,less than 10%
same,trophozoites that completed the cycle after treatment,trophozoites 18-22 h post-invasion,less than 10%
